1 protein from publication PMC5858766, “Identification of aaNAT5b as a spermine N-acetyltransferase in the mosquito, Aedes aegypti” (PLoS ONE, 2018) can be followed below.

Assay in all cases: purified protein
Type in all cases: biochemical, Aedes aegypti
Common to all, as to details: 0.4 mM acetyl-CoA, 50 mM Tris-HCl, 1 mg/mL BSA, room temperature, 5 min; apparent Km

Substrate in series [1]: N=C(N)NCCCCN
Substrate in series [2]: NCCCCN
Substrate in series [3]: NCCCCNCCCN
Substrate in series [4]: NCCCNCCCCNCCCN
Substrate in series [5]: NCCc1c[nH]cn1
Substrate in series [6]: NN

B1: aaNAT5b/SAT (Aedes aegypti) (protein)
chain: MVAPESIVLRVARLDELEQVREILHRIYYPEEGITISYVHGKSHTLDDERFSLSFVEQGTVVVAEDSAAKKFIGVSIAGPIQPGDPDAMVEEAATTETKKWGDILKLLALLERTADVCGRYGLEKAYHVHILAVDPTYRGHSLGQRLLQFQMDLSKKLGFKAISGDFTSVFSVKLAEKLGMECISQLALGDYRDEKGEKLFEPLDVHQVIKTCVKLL
notes: about 25 kDa; monomer
For orientation: Km means the substrate concentration at which the rate is half of its maximum. As usually defined, the kcat is the maximal rate divided by the concentration of active sites. Usually kcat/Km stands for the turnover number divided by the Michaelis constant. Consider B1, for which the Km worked out at 210 ± 50 µM in “purified protein [1]”; 520 ± 110 µM in the series “purified protein [2]”; 690 ± 120 µM in “purified protein [3]”; 170 ± 40 µM in the series “purified protein [4]”; 700 ± 130 µM in “purified protein [5]”; 260 ± 30 µM in “purified protein [6]”. The kcat in “purified protein [1]” came to 2.5 ± 0.183 s⁻¹; in “purified protein [2]”, 0.503 ± 0.0267 s⁻¹; in “purified protein [3]” it was 0.26 ± 0.0233 s⁻¹; in “purified protein [4]” it was 3.32 ± 0.2 s⁻¹; in “purified protein [5]” it was 0.277 ± 0.0217 s⁻¹; in the series “purified protein [6]”, 0.637 ± 0.0283 s⁻¹. Also, the kcat/Km in “purified protein [1]” amounted to 11900 M⁻¹ s⁻¹; in “purified protein [2]”, 967 M⁻¹ s⁻¹; in “purified protein [3]” it was 383 M⁻¹ s⁻¹; in the series “purified protein [4]”, 19500 M⁻¹ s⁻¹; in the series “purified protein [5]” it was 400 M⁻¹ s⁻¹; in the series “purified protein [6]”, 2450 M⁻¹ s⁻¹.
